Laboratory results: patent US20210253692A1 (GALAPAGOS, published 2021)

Target: the molecule itself
Test: dynamic light scattering in phosphate buffered saline; self-interaction of the antibody

B1: MAB#1 (antibody, human IgG1, lambda, V domains shown)
VH: EVQLLESGGGLVQPGGSLRLSCAASGFTVSDYAMHWVRQAPGKGLEWVSYIGGVGEGTQYAESVKGRFTISRDNSKNTLYLQMNSLRAEDTAVYYCARGFAIRYYGFDYWGQGTLVTVSS
VL: SYELTQPPSVSVSPGQTASITCSGDKLGDKYAYWYQQKPGQSPVLVIYQDSKRPSGIPERFSGSNSGNTATLTISGTQAEDEADYYCQVFTFPLVTTVFGGGTKLTVLG
notes: also called IL-17C antibody; anti-IL-17C antibody
  kD (diffusion interaction parameter): -23.6 mL/g
